Measured values as given in article PMC8073111.
Values belong to the molecule of their own block, whether it stands above or below them.

Key:
[1] = target: T1, C-myc-CCR4-RLuc8 (human) (UniProt P51679)
T1 sequence: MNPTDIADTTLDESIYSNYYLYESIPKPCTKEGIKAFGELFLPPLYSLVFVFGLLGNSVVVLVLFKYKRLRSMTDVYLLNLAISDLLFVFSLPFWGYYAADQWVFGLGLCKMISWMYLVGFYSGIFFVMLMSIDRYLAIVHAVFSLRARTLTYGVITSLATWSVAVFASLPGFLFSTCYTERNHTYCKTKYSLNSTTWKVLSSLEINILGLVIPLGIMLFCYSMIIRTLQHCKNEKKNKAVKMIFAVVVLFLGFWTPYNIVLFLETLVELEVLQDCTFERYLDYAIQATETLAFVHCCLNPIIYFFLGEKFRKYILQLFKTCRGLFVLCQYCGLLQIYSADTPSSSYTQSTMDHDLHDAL

[2] = target: C-myc-CCR7-RLuc8 (human) (UniProt P32248)
UniProt P32248, sequence (P32248 25-378): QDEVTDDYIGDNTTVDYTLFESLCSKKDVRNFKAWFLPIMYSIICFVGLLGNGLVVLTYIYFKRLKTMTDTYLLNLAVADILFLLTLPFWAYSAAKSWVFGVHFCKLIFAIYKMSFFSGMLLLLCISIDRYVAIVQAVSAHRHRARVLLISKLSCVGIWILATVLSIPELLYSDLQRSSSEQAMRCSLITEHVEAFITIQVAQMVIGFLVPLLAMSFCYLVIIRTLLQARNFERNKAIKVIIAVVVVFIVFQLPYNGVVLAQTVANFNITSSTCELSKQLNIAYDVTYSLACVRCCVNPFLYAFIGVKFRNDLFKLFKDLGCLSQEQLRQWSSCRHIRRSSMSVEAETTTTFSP

[3] = target: C-myc-CCR7-RLuc8 (human) (UniProt P32248); conditions: scale: pEC50
[4] = target: T2, C-myc-CCR10-RLuc8 (human) (UniProt P46092)
T2 sequence: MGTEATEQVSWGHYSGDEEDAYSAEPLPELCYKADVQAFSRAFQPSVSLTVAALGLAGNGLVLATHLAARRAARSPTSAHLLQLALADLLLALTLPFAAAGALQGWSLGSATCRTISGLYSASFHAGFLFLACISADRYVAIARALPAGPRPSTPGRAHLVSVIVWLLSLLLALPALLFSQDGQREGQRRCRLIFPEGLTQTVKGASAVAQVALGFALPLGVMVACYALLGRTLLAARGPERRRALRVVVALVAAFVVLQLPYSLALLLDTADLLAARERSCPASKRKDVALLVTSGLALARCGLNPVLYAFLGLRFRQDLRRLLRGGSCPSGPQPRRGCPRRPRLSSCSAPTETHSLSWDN

β-arrestin2 recruitment to CCR4 (BRET): Emax relative to CCL22 [1]: 28%
Molecule: CC chemokine ligand 17 (CCL17) (from UniProt Q92583 24-94)

G protein activation via CCR7: Emax relative to CCL19 [2]: 103%
cAMP inhibition via CCR7: Emax relative to CCL19 [2]: 99%
β-arrestin2 recruitment to CCR7 (BRET): pEC50 as printed in the text, assuming the same Emax value (differs from Table 1) [3]: 6.7
Molecule: CCL21 (from UniProt O00585 24-134) (ligand)

G protein activation via CCR10: maximum signal observed relative to the Emax of CCL27; curve not saturated [4]: 80%
NFAT Ca2+ reporter via CCR10: Emax relative to CCL27 [4]: 106%
cAMP inhibition via CCR10: maximum signal observed relative to the Emax of CCL27; curve not saturated [4]: 64%
β-arrestin2 recruitment to CCR10 (BRET): maximum signal observed relative to the Emax of CCL27; curve not saturated, potency ND [4]: 82%
B1: CCL28(4-108) (ligand)
chain: ILPIASSCCTEVSHHISRRLLERVNMCRIQRADGDCDLAAVILHVKRRRICVSPHNHTVKQWMKVQAAKKNGKGNVCHRKKHHGKRNSNRAHQGKHETYGHKTPY
